For three substances, stoichiometry N results are on record in paper PMC6051998.

One may read the stoichiometry N as a count of units in the complex or per binding partner.

For assay [1], the target named is glutathione S-transferase (GST). Description: SEC-MALS; MffΔTM (100 μM) and GST (100 μM) on Superose 6 10/300 GL.
The target of assay [2] is MffΔTM (residues 1–217), dimeric variant. The description is as above.
The target of assay [3] is Drp1 short GG (minimal GTPase-GED construct of Drp1, short splice variant) (human) (UniProt O00429). Description: SEC-MALS; GG constructs after 30 min at room temperature with the transition-state analog GDP.AlFx (2 mM GDP, 4 mM MgCl2, 2 mM AlCl3, 20 mM NaF); Drp1 GG 25 μM, Dyn1 GG and GG-PRD 15 μM; Superdex 75 10/300 GL.

glutathione S-transferase (GST) (enzyme), sequence (P08515 2-218): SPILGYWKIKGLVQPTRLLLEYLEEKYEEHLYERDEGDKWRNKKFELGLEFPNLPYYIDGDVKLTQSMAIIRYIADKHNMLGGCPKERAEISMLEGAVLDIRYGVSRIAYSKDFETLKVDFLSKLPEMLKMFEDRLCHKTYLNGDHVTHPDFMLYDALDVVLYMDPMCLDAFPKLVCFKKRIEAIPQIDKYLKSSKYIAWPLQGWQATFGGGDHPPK

As to “glutathione S-transferase (GST) (enzyme)”, in assay [1], the stoichiometry N is 2.

With “MffΔTM (residues 1–217), dimeric variant (domain or fragment)”, the stoichiometry N in assay [2] was 2.

For the substance “Drp1 short GG (minimal GTPase-GED construct of Drp1, short splice variant) (from UniProt O00429-4 1-327; O00429-4 1-327) (domain or fragment)”, in assay [3], the stoichiometry N stood at 2.
